Measured values from US20240262893A1.

Biological target: SARS-CoV-2 (Wuhan-Hu-1) wild-type (WT) spike protein carried on pseudotyped virus or on live wild-type virus (SARS-CoV-2 (Wuhan-Hu-1)), P0DTC2
Assay: cell-based or functional assay

B1: R2D9 CDR3-knob (peptide)
peptide: ITHKTCPNGYNWFDRCCSWDGTCGDGCCSNRAWPSGNGRADSSIGETYGYEF
modifications: not checked
B1 gave a pseudovirus neutralization, ng/mL (quantity not given) of 24.2 ng/mL.
